Laboratory results published in publication PMC5105194 (Nature Communications, 2016).

Biological target: full-length human VPS29 (human, UniProt Q9UBQ0 1-182)
Test: ITC; TBC proteins (100∼200 μM) injected into retromer proteins (8–16 μM); 20 °C; 20 mM Tris pH 8, 200 mM NaCl, 5 mM βME; one set of sites model
Settings: both partners purified

binding result: binds
B1: TBC1d5 Ins1 peptide (peptide)
peptide: GQQDLMINNPLSQDEGSLWNKFFQDKE
notes: TBC1d5 residues 132–158 (Insertion 1 region); The limits are told for the crystallised peptide; source: expressed as MBP fusion, purified (Amylose resin, TEV cleavage, Ni-NTA, Superdex 75); not shown: His6, C-terminal, kept
